# Test results as given in patent US10280442B2, “Mutant sucrose phosphorylases with improved glycosylation activity towards polyphenols” (Universiteit Gent, priority 2015, dated 2019).
# Tests used:
# [1] = test system: Thermoanaerobacterium thermosaccharolyticum sucrose phosphorylase (TtSPP), EC 2.4.1.329, wild type; settings: sucrose as glycosyl donor; Verhaeghe et al., 2014; cited from earlier work
# [2] = biological target: T1, Thermoanaerobacterium thermosaccharolyticum sucrose phosphorylase (TtSPP) variant R134A, SEQ ID No 1 (Thermoanaerobacterium thermosaccharolyticum, UniProt D9TT09, R134A); assay: Kinetics of resveratrol glycosylation by variant R134A (co-substrate sucrose); format: biochemical; settings: 1M sucrose as co-substrate, pH 6.5, 55° C., 20% AMMOENG 101
# T1 sequence (D9TT09 1-488 R134A): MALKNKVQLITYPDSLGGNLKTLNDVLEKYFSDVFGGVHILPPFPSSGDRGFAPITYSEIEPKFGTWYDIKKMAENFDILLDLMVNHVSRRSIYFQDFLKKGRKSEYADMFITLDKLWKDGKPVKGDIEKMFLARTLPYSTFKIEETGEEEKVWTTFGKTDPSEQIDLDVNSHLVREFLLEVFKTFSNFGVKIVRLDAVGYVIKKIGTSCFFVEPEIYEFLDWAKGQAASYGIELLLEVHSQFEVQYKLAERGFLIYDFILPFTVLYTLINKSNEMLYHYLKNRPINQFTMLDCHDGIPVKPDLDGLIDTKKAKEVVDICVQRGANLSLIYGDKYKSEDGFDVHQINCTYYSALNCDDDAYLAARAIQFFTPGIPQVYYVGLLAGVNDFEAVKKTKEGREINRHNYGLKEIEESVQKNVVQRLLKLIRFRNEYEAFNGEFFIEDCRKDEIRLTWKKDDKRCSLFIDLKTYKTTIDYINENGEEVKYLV
# Protocol: (§1) Kinetics of enzyme variants on resveratrol were determined in an aqueous system containing 20% ionic liquid AMMOENG 101 (kindly provided by Evonik Industries AG) to dissolve the acceptor in a range of 0 to 200 mM. At this concentration of ionic liquid, the kinetic parameters of the enzyme for its natural substrates are not affected. Reactions were started combining 8.5 μM heat purified enzymes, 1 M sucrose and the respective acceptor-concentration at 55° C. To determine the initial velocity, samples were taken every 15 minutes for one hour, and inactivated by ten-fold dilution in pure ethanol. Product formation was again quantified by TLC and ImageJ analysis, using purified resveratrol 3-alpha-glucoside as TLC-standard and a respective standard curve for calculations. Kinetic parameters were calculated by non-linear regression of the Michaelis-Menten equation with Sigma Plot v13.0. All experiments were performed in triplicate to obtain kinetic parameters as reproducible mean values±standard errors.
# [3] = biological target: Thermoanaerobacterium thermosaccharolyticum sucrose phosphorylase (TtSPP) variant R134V, SEQ ID No 2 (Thermoanaerobacterium thermosaccharolyticum, UniProt D9TT09, R134V); assay: Kinetics of resveratrol glycosylation by variant R134V (co-substrate sucrose); format: biochemical; settings: 1M sucrose as co-substrate, pH 6.5, 55° C., 20% AMMOENG 101
# Protocol: as §1
# [4] = Screening assay, transglycosylation activity on quercetin (semi-quantitative TLC); format: biochemical; settings: 1 gL^−1 enzyme, 10 gL^−1 acceptor, 1 M sucrose, pH 6.5, 37° C., 16 h; FIG. 2 A
# Protocol: (§2) Heat-purified proteins (for tests on different acceptors) or crude protein extracts (for library screening) were incubated to a final concentration of 1 gL^−1 with 10 gL^−1 acceptor and 1 M sucrose in 50 mM MOPS-buffer at pH 6.5. Assays were performed at 37° C. in microtiterplates shaking at 200 rpm. The product amounts were evaluated after 16 h by semi-quantitative TLC-analysis: 1 μl of each sample solution was spotted on a Silica-plate (TLC-Silica gel 60 F254, Merck Millipore) and run in a solvent system from ethylacetate:methanol:water (30:5:4, v/v/v). Plates were oxidized with 10% sulphuric acid and spot intensities were determined using ImagaJ.
# [5] = Screening assay, transglycosylation activity on resveratrol (semi-quantitative TLC); format: biochemical; settings: 1 gL^−1 enzyme, 10 gL^−1 acceptor, 1 M sucrose, pH 6.5, 37° C., 16 h; FIG. 1
# Protocol: as §2
# [6] = substrate: Oc1ccc(/C=C/c2cc(O)cc(O)c2)cc1; assay: Kinetics of resveratrol glycosylation by variant R134T (co-substrate sucrose); format: biochemical, Thermoanaerobacterium thermosaccharolyticum; settings: other: variant R134T, 1M sucrose as co-substrate, pH 6.5, 55° C., 20% AMMOENG 101
# Protocol: as §1
# [7] = Qualitative survey of promiscuity on diverse polyphenolic acceptors; format: biochemical; settings: FIG. 2 B
# Protocol: as §2
# [8] = Production of resveratrol 3-alpha-glucoside in aqueous system, followed by HPLC; format: biochemical; settings: 1 M sucrose, saturated suspension of 10 g·L^−1 resveratrol, 24 h, 55° C., pH 6.5
# Protocol: Up-scaling of the transglycosylation reactions on resveratrol was performed up to 400 ml volumes. Reactors were stirred continuously at 55° C. for 24 h, and contained 1 M sucrose, 1 mgL^−1 enzyme and 10 gL^−1 of resveratrol (suspension) in 50 mM MOPS-buffer pH 6.5. Thanks to the quantitative conversion of resveratrol, its glucoside could be simply isolated by repeated ethylacetate extractions to a purity of >90%. The solvent was evaporated and the dried product analyzed by HPLC to determine purity and yield. To verify the identity of the compound by NMR and to produce the standards (TLC, H PLC), further purification was performed by column chromatography on silica gel (EtOAC:MeOH:H2O; 30:5:4; v/v/v) as described earlier (De Winter et al, 2013).
# Reactions were followed for 24 h. […] Supernatants were filtered through a 0.2 μm polystyrol filter, diluted in DMSO and analyzed by HPLC using a polar Waters XBridge Amide column (250×4.6 mm, 3.5 μm) and an Alltech 2000ES ELSD-detector (40° C., gas flow 1.5 Lmin^−1), supplied with a gradient mixture of eluent A (acetonitrile, 0.2% triehtylamine) and eluent B (0.2% triethylamine): 90% solvent A (6 min), 10-25% solvent B (stepwise, 3% min^−1), 25% solvent B (20 min) and 90% solvent A (10 min). Concentrations of ingredients and respective yields were calculated according to standards of fructose, glucose and resveratrol 3-alpha-glucoside.
# Chain of Thermoanaerobacterium thermosaccharolyticum sucrose phosphorylase (TtSPP) variant R134V, SEQ ID No 2 (D9TT09 whole entry R134V): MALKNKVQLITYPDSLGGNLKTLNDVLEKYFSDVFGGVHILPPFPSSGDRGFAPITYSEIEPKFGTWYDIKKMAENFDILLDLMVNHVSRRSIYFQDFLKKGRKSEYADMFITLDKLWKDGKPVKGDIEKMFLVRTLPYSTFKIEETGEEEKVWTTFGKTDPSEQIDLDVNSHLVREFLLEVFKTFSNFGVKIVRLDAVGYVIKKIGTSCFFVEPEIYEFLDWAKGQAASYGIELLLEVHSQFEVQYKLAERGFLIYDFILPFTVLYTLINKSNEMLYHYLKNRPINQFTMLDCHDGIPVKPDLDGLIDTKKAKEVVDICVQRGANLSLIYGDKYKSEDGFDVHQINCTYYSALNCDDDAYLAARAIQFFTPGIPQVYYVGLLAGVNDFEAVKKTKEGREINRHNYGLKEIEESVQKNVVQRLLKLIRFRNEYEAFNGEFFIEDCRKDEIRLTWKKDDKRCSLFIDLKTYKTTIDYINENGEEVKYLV
molecule,measurement,setting,value
OC[C@H]1O[C@@](CO)(O[C@H]2O[C@H](CO)[C@@H](O)[C@H](O)[C@H]2O)[C@@H](O)[C@@H]1O [sucrose],Km,[1],77 mM
"Oc1ccc(/C=C/c2cc(O)cc(O)c2)cc1 [resveratrol, trans-3,4′,5-trihydroxystilbene]",kcat,[2],2.36 ± 0.25 s⁻¹
same,kcat,[3],0.45 ± 0.02 s⁻¹
"BaSP: wild-type thermostable sucrose phosphorylase of Bifidobacterium adolescentis (protein, UniProt A0ZZH6 1-504, looked up) Sucrose phosphorylase: MKNKVQLITYADRLGDGTIKSMTDILRTRFDGVYDGVHILPFFTPFDGADAGFDPIDHTKVDERLGSWDDVAELSKTHNIMVDAIVNHMSWESKQFQDVLAKGEESEYYPMFLTMSSVFPNGATEEDLAGIYRPRPGLPFTHYKFAGKTRLVWVSFTPQQVDIDTDSDKGWEYLMSIFDQMAASHVSYIRLDAVGYGAKEAGTSCFMTPKTFKLISRLREEGVKRGLEILIEVHSYYKKQVEIASKVDRVYDFALPPLLLHALSTGHVEPVAHWTDIRPNNAVTVLDTHDGIGVIDIGSDQLDRSLKGLVPDEDVDNLVNTIHANTHGESQAATGAAASNLDLYQVNSTYYSALGCNDQHYIAARAVQFFLPGVPQVYYVGALAGKNDMELLRKTNNGRDINRHYYSTAEIDENLKRPVVKALNALAKFRNELDAFDGTFSYTTDDDTSISFTWRGETSQATLTFEPKRGLGVDNTTPVAMLEWEDSAGDHRSDDLIANPPVVA",transglycosylation activity on quercetin,[4],neither had activity on quercetin
same,transglycosylation activity on resveratrol,[5],Neither of these enzymes display significant activity on resveratrol
"Thermoanaerobacterium thermosaccharolyticum sucrose phosphorylase (TtSPP) variant R134T, SEQ ID No 3 (Thermoanaerobacterium thermosaccharolyticum DSM 571; … (protein) MALKNKVQLITYPDSLGGNLKTLNDVLEKYFSDVFGGVHILPPFPSSGDRGFAPITYSEIEPKFGTWYDIKKMAENFDILLDLMVNHVSRRSIYFQDFLKKGRKSEYADMFITLDKLWKDGKPVKGDIEKMFLTRTLPYSTFKIEETGEEEKVWTTFGKTDPSEQIDLDVNSHLVREFLLEVFKTFSNFGVKIVRLDAVGYVIKKIGTSCFFVEPEIYEFLDWAKGQAASYGIELLLEVHSQFEVQYKLAERGFLIYDFILPFTVLYTLINKSNEMLYHYLKNRPINQFTMLDCHDGIPVKPDLDGLIDTKKAKEVVDICVQRGANLSLIYGDKYKSEDGFDVHQINCTYYSALNCDDDAYLAARAIQFFTPGIPQVYYVGLLAGVNDFEAVKKTKEGREINRHNYGLKEIEESVQKNVVQRLLKLIRFRNEYEAFNGEFFIEDCRKDEIRLTWKKDDKRCSLFIDLKTYKTTIDYINENGEEVKYLV",Km,[6],56 ± 8 mM
same,kcat,[6],0.08 ± 0.004 s⁻¹
same,kcat/Km,[6],1.4 ± 0.2 M⁻¹ s⁻¹
"R134A: variant R134A of TtSPP sucrose phosphorylase from Thermoanaerobacterium thermosaccharolyticum (protein, mutant of sucrose phosphorylase of bacterium Thermoanaerobacterium thermosaccharolyticum) MALKNKVQLITYPDSLGGNLKTLNDVLEKYFSDVFGGVHILPPFPSSGDRGFAPITYSEIEPKFGTWYDIKKMAENFDILLDLMVNHVSRRSIYFQDFLKKGRKSEYADMFITLDKLWKDGKPVKGDIEKMFLARTLPYSTFKIEETGEEEKVWTTFGKTDPSEQIDLDVNSHLVREFLLEVFKTFSNFGVKIVRLDAVGYVIKKIGTSCFFVEPEIYEFLDWAKGQAASYGIELLLEVHSQFEVQYKLAERGFLIYDFILPFTVLYTLINKSNEMLYHYLKNRPINQFTMLDCHDGIPVKPDLDGLIDTKKAKEVVDICVQRGANLSLIYGDKYKSEDGFDVHQINCTYYSALNCDDDAYLAARAIQFFTPGIPQVYYVGLLAGVNDFEAVKKTKEGREINRHNYGLKEIEESVQKNVVQRLLKLIRFRNEYEAFNGEFFIEDCRKDEIRLTWKKDDKRCSLFIDLKTYKTTIDYINENGEEVKYLV",activity on flavonoids and phenoxyphenols (acceptor promiscuity),[7],displayed activity on structures from all five major classes of flavonoids
same,transglycosylation activity on quercetin,[4],significant amounts of transglycosylation product could be detected
same,transglycosylation activity on resveratrol,[5],retained more than half of its activity on resveratrol
same,resveratrol 3-alpha-glucoside produced,[8],17.1 ± 0.6 g/L
same,conversion of resveratrol (acceptor),[8]; FIG. 3,complete conversion of the acceptor
